One block for each substance: values may come before it.
Assays:
[1] = biological target: Full-length kinesin heavy chain (Khc FL), unlabeled (Drosophila) (UniProt P17210); test: mass photometry; coexpressed, copurified Khc–Tm1 complex at 20 nM in PBS
[2] = biological target: SNAP-tagged full-length kinesin heavy chain (Khc FL), Alexa Fluor 647-labeled (Drosophila) (UniProt P17210); test: single-molecule TIRF colocalisation and motility assay on microtubules; Khc RNP mixes assembled at 500 nM of each component, diluted to 6.25 nM in BRB12 with 2.5 mM MgATP; taxol-stabilized microtubules immobilized by biotin-streptavidin; Cy3-osk 3′ UTR present
Chain of SNAP-tagged full-length kinesin heavy chain (Khc FL), Alexa Fluor 647-labeled (Drosophila) (P17210 whole entry): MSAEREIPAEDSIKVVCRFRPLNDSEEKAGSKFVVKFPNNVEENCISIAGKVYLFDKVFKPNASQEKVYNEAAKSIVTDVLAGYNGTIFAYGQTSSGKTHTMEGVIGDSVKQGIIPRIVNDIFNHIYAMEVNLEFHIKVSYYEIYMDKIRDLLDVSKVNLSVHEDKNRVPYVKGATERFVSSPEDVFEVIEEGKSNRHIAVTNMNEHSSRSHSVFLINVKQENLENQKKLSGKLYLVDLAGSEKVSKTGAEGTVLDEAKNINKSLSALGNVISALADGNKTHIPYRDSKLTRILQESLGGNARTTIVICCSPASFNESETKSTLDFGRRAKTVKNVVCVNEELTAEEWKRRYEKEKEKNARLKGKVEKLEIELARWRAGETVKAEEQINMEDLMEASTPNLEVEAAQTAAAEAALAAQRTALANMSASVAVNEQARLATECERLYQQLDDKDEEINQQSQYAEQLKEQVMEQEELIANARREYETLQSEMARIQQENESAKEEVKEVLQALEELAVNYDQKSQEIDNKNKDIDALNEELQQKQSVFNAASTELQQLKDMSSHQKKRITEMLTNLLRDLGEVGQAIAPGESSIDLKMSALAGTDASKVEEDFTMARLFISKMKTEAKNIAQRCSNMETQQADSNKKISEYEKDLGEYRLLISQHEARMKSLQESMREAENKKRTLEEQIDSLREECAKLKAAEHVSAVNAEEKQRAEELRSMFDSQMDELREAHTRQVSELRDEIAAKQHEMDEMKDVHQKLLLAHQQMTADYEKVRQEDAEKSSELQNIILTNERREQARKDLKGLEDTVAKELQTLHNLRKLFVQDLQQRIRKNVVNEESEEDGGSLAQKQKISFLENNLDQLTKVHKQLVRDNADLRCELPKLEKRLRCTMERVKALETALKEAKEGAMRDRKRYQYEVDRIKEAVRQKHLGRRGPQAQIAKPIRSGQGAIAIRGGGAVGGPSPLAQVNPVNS

[3] = biological target: SNAP-tagged full-length kinesin heavy chain (Khc FL), Alexa Fluor 647-labeled (UniProt P17210); test: as above; conditions: other: single-molecule TIRF colocalisation and motility assay on microtubules
Chain of SNAP-tagged full-length kinesin heavy chain (Khc FL), Alexa Fluor 647-labeled (P17210 whole entry): as above

[4] = biological target: SNAP-tagged full-length kinesin heavy chain (Khc FL), Alexa Fluor 647-labeled (Drosophila) (UniProt P17210)

Chain of Full-length kinesin heavy chain (Khc FL), unlabeled (Drosophila) (P17210 whole entry): as above

stoichiometry N [1]: 2 Khc per Tm1
Substance: Full-length Tm1-I/C (Tm1 FL) coexpressed and copurified with Khc FL (natural protein)

percent of Khc signals colocalized with Tm1 signals [2]: 71%
Substance: SNAP-Tm1 1-335, fluorescently labeled (domain or fragment)

Substance: SNAP-tagged full-length Tm1-I/C (Tm1 FL), Alexa Fluor 488-labeled
percent of Khc molecules bound to Tm1, corrected for the labeling efficiency of Tm1 [3]: ~95% of Khc molecules were bound to Tm1

mean velocity of microtubule-associated Khc FL complexes in the TIRF motility assay in the presence of Tm1 FL (0.240 µm s^−1 without Tm1) [4]: 0.099 µm s^−1
percent of Khc signals colocalizing with Tm1 signals [2]: 44.6%
Substance: SNAP-tagged full-length Tm1-I/C (Tm1 FL), Alexa Fluor 488-labeled (natural protein)

Reference: paper PMC10948360
